According to article PMC3599193, “Expression of a secretory α-glucosidase II from Apis cerana indica in Pichia pastoris and its characterization” (BMC Biotechnology, 2013):

How the values were obtained:
[1] = substrate: O=[N+]([O-])c1ccc(O[C@H]2O[C@H](CO)[C@@H](O)[C@H](O)[C@H]2O)cc1; assay: purified protein; conditions: 0-25 mM substrate, sodium phosphate pH 5.5, 37°C (assay 'as above'), partially purified enzyme
[2] = substrate: OC[C@H]1O[C@@](CO)(O[C@H]2O[C@H](CO)[C@@H](O)[C@H](O)[C@H]2O)[C@@H](O)[C@@H]1O; assay: glucose release, glucose oxidase-peroxidase, Lineweaver-Burk; assay type: biochemical, Apis cerana; conditions: 0-20 mM substrate, sodium phosphate pH 5.5, 37°C (assay 'as above'), partially purified enzyme
From the text: glucose release, glucose oxidase-peroxidase, Lineweaver-Burk on rAciHBGase II-(His)6

B1: rAciHBGase II-(His)6 (Apis cerana indica) (protein)
chain: FRATITVPCLLLVASLVNSVDVNWYKNALVYQIYPRSFQDSNGDGIGDLNGITARIDHIADIGAQALWLSPIYKSPQVDFGYDISNFTDVDPDYGTLADFDRLVRRAKTLGLKVILDFVPNHSSHEHPWFKKSVQRIKPYDEYYVWRDARIVNGTRQPPNNWLSVFWGSAWEWNDVRQQYYLHQFAAGQPDLNYRSAALDQEMKNVLTFWMDRGVDGFRIDAINHMFEDKRLLDEPSANRTDLSKDDYESLVHVYTRDQNETYDVSRSWRNLMDEHSNRTNSDPRMILTEAYTEFNLTVKYYKSGSTVPFNFMFITDLNNQSTASDFKQLIDRWVGNVPNGSVTNWVSGNHDNHRVASRFGRQRADEILMLTLTLPGIGVVYNGDEIGMEDRPFTYAETVDPAGCNAGPAKYYLKSRDPERTPYQWDNSTSAGFSDRNKTWLPVNDNSRSLNLAAQKKEYYSHYVAFKSMSYLKKQPVIANGSLEVDVIDGKVLSVKRKLGNDTVIVMVNFSKNPVTINMSTLHPPADLVVYANNVIGSGLSHGNWIYPTSMTIPGSNSAIFTNYKLYWRYWQGVDGL
notes: full-length cDNA (1,740 bp, 579 residues) in pPICZalphaA (EcoRI/KpnI), secreted from Pichia pastoris GS115, C-terminal His6 kept, partially purified by HisTrap, ~73 kDa
Q: What does the source list for B1?
A: Km [1]: 4.20 ± 0.18 mM; kcat [1]: 1.89 ± 0.11 s⁻¹; Km [2]: 15.3 ± 0.87 mM; kcat [2]: 845.0 ± 0.00 s⁻¹
